# Test results as given in article PMC12197088.
# How the values were obtained:
# [1] = biological target: nucleolin (NCL), cell surface of MCF-7 (UniProt P19338); assay: flow cytometry; conditions: intact MCF-7 cells (apparent cellular Kd); Dulbecco's PBS with CaCl2 and MgCl2, 4.5 g/L glucose, 5 mM MgCl2, 0.1 mg/mL yeast tRNA, 1 mg/mL BSA; on ice 30 min; pH not stated
# [2] = biological target: nucleolin (NCL), cell surface of MCF-7;IGFIIR, cell surface of MCF-7 (UniProt P19338+P11717); assay: flow cytometry; conditions: intact MCF-7 cells (apparent cellular Kd); Dulbecco's PBS with CaCl2 and MgCl2, 4.5 g/L glucose, 5 mM MgCl2, 0.1 mg/mL yeast tRNA, 1 mg/mL BSA; on ice 30 min; pH not stated
# Sequence of nucleolin (NCL), cell surface of MCF-7;IGFIIR, cell surface of MCF-7 (P19338 2-710, chain 1 of 2): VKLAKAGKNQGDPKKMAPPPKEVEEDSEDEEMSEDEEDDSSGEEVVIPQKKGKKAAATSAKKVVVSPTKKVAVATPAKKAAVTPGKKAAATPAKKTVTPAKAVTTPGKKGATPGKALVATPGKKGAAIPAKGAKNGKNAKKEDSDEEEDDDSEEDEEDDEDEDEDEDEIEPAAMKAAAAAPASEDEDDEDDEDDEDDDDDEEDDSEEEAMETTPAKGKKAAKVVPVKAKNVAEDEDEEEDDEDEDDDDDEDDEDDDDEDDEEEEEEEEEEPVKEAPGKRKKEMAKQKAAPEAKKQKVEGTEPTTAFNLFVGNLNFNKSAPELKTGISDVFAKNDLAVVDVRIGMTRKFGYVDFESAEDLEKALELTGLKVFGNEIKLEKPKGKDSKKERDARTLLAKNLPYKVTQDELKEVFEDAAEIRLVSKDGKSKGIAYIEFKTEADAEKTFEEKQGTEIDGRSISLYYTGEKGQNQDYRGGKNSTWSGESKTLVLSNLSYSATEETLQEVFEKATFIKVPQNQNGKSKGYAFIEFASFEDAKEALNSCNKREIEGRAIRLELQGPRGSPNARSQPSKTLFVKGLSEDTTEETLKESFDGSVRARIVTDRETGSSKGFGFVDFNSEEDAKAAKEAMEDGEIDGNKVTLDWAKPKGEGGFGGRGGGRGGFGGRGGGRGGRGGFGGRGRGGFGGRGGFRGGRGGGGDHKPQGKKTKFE
# Sequence of nucleolin (NCL), cell surface of MCF-7;IGFIIR, cell surface of MCF-7 (P11717 41-2491, chain 2 of 2): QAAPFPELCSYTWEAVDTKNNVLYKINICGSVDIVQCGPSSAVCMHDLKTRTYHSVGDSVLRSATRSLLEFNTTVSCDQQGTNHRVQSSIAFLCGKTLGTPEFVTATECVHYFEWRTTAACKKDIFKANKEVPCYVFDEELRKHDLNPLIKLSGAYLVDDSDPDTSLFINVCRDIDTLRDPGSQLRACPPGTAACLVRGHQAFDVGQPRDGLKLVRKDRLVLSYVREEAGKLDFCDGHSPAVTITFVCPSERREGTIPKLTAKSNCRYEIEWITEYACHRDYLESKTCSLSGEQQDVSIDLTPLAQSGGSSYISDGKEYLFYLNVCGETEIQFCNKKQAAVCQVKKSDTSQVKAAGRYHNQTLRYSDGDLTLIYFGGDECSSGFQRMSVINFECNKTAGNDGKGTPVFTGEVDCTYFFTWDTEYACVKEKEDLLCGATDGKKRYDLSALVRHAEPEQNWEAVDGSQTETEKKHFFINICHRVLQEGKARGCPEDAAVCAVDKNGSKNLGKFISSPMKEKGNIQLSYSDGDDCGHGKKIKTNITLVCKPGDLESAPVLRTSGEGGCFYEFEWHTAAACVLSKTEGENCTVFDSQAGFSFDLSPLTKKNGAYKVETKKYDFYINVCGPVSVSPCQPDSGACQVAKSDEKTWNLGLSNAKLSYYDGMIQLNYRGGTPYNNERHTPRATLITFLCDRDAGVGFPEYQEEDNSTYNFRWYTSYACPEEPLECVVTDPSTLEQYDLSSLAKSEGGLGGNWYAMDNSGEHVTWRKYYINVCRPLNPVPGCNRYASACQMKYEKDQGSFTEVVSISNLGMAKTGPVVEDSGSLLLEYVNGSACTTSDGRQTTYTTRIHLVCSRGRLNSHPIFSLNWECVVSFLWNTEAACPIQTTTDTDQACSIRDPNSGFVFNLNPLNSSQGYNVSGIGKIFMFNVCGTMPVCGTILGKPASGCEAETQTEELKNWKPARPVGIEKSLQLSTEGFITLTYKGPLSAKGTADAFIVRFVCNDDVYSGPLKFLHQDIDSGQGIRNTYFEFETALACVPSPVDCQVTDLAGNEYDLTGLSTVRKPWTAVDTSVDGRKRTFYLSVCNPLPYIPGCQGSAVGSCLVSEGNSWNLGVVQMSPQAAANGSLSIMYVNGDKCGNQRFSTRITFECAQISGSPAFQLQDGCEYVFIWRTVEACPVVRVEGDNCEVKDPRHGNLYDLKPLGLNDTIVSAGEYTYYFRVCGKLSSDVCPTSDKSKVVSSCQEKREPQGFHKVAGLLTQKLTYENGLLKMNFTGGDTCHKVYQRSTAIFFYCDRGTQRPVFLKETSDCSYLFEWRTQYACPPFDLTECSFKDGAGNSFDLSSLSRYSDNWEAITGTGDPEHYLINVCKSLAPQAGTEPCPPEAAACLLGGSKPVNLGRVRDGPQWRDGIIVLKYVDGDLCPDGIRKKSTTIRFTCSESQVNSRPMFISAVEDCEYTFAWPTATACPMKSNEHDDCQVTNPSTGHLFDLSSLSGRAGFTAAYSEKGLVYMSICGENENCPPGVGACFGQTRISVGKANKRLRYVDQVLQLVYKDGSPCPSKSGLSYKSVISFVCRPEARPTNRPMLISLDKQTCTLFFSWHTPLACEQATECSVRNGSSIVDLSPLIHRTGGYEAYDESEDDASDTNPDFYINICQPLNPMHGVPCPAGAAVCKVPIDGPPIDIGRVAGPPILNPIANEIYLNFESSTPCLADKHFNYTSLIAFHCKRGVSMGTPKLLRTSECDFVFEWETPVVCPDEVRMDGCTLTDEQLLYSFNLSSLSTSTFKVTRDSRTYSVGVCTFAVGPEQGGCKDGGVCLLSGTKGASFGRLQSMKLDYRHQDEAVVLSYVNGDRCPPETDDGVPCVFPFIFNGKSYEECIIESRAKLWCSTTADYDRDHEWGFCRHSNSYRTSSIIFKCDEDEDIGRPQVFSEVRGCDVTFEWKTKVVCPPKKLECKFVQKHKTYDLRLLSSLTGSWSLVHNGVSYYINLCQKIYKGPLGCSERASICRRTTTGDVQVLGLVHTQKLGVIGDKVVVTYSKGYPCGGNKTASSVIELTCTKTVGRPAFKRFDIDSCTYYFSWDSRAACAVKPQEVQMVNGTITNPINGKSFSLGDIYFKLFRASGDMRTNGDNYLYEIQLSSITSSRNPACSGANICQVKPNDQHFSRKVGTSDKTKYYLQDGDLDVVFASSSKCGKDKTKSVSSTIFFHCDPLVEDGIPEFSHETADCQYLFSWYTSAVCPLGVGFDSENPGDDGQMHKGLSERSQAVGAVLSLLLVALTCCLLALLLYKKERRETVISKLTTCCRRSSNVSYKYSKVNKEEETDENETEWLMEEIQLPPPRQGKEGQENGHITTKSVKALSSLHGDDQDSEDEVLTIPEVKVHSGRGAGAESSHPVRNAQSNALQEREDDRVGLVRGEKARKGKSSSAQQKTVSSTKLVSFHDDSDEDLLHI
# Sequence of nucleolin (NCL), cell surface of MCF-7 (P19338 2-710): as the sequence (P19338 2-710, chain 1 of 2) above
Sequence,Kd [1] [nM],Kd [2] [nM]
GGTGGTGGTGGTTGTGGTGGTGGTGG [AS1411 (NCL aptamer)],137,
TTTTTTTTTTTTTTTGGGCGCGTAGATGACGAGCAGTCCTAACATCGTTTAGGAC / AAAAAAAAAAAAAAAGGTGGTGGTGGTTGTGGTGGTGGTGG [Mo-AS (monovalent NCL/IGFIIR chimera)],,518
